Source: the DeepSol protein solubility set

Assay: soluble on expression in E. coli; label from the status in PepcDB or PDB records

Sequence | soluble on expression in E. coli
MGHVDREDLLNVIRHELRLEDDDGPGLCSRLLLNPDRKCRAGGLPLDFRLKNGDLMDDGDAGFDDIYEIPLYEEPIHTRTLINDSLALRTAEKIKEEGRRDNFYTGPLDELFVKQEVNWPPKTPISTEKSAIERYLEENSANLNNPLGEYSKFAATTTDPSRQIEIIIPMSCDEEIGFKTLKIEVLTTARIREVIGYCLLQYYLTFDSYLPGEVDDYQFYLAEEDGEIEHELPPLDSSKLVGQVGFTCLGLVSRIKKNGNSRQKRAVAVWFVDKDQYVIEVDNMEKPLRWLRDEAFRLREETVKEREPLFQGLLDIKEYYMEAVDNFDVKLDLEASISSARSLEFVMIRKNSSRAGFHPRGGRYGRQMSAMLTLKMPNSPIAAGPMTPLPTVMEESPAVAGTSNGFGFPKAESCGAIASTPGVTWNDDGGQLSSFIVQRIHKFKPKWKANLSTVV | not soluble
MTKHKERVMYYGKGDVFAYRTYLKPLTGVRTIPESPFSGRDHILFGVNVKISVGGTKLLTSFTKGDNSLVVATDSMKNFIQKHLASYTGTTIEGFLEYVATSFLKKYSHIEKISLIGEEIPFETTFAVKNGNRAASELVFKKSRNEYATAYLNMVRNEDNTLNITEQQSGLAGLQLIKVSGNSFVGFIRDEYTTLPEDSNRPLFVYLNIKWKYKNTEDSFGTNPENYVAAEQIRDIATSVFHETETLSIQHLIYLIGRRILERFPQLQEVYFESQNHTWDKIVEEIPESEGKVYTEPRPPYGFQCFTVTQEDLPHENIL | soluble
MKLQKQLLEAVEHKQLRPLDVQFALTVAGDEHPAVTLAAALLSHDAGEGHVCLPLSRLENNEASNPLLATCVSEIGELQNWEECLLASQAVSRGDEPTPMILCGDRLYLNRMWCNERTVARFFNEVNHTIEVDEALLAQTLDKLFPVSDEINWQKVAAAVALTRRISVISGGPGTGKTTTVAKLLAALIQMADGERCRIRLAAPTGKAAARLTESLGKALRQLPLTDEQKKRIPEDASTLHRLLGAQPGSQRLRHHAGNPLHLDVLVVDEASMIDLPMMSRLIDALPDHARVIFLGDRDQLASVEAGAVLGDICAYANAGFTAERARQLSRLTGTHVPAGTGTEAASLRDSLCLLQKSYRFGSDSGIGQLAAAINRGDKTAVKTVFQQDFTDIEKRLLQSGEDYIAMLEEALAGYGRYLDLLQARAEPDLIIQAFNEYQLLCALREGPFGVAGLNERIEQFMQQKRKIHRHPHSRWYEGRPVMIARNDSALGLFNGDIGIALDRGQGTRVWFAMPDGNIKSVQPSRLPEHETTWAMTVHKSQGSEFDHAALILPSQRTPVVTRELVYTAVTRARRRLSLYADERILSAAIATRTERRSGLAALFSSRE | not soluble
MGRSSRKDEILQAALACFSEHGVDATTIEMIRDRSGASIGSLYHHFGNKERIHGELYLAGIGQYAALLEAGFARARSAEETVRLLVTSYIDWVVANPDWARFILHSRGRVEAGELGERLRADNQAHFARIHAALAGYRAEGLFREMPDDCFASVVIGPAHDLARQWLAGRTRVALADCRELLAQVAWDSVRAA | not soluble
NTQITIKMEPDTQALEEVVVIGYGAVKKRDLTGAVSSVKNEDITLTPATNPMQALQGRVAGLDITQASGQPGEGPKLQLRGTRSFTASGDPMFIIDGMPGDYSTLNPNDIESIEVLKDASSTAVYGAAGANGVIIITTKSGKAGK | not soluble
MGSDKIHHHHHHMPFIIDYQCLCAINSEIKMFSGEQLGQAISEAIKRKNVSQKEVADHFGVKQPSVSGWIKNGRIDKKHLDKLIDYFSDVVTPSHFGIETFRVLKSNEQSSIRFPRLNAEATCGAGTINDHYIEVVDYVTVAAAWAREKLGGNLNKIQVITARGDSMEPTIENGDVMFVDTAVEAFDGDGLYLLWYIDGLKAKRLQSTVGGGLMIISDNSSYRTETVRGEDLNAVRIIGRIRGAWRLSQF | not soluble
MIVIFVHGWSVTHTNTYGELPQWLENQSKQGKLDIQVGNIYLGRYISFDDTVTVDDIARAFDQAVRDEIAAKVKDGQRFACITHSTGGPIVRKWMDLYFKNNLAKCPLSHLIMLAPANHGSALAQLGKSRLGRIKSFFEGIEPGKCVLDWLELGSDMSWQLNESWLDYDCTANGVYSFVLTGQKIDRQLYDAVNSYTGESGSDGVVRVAATNMNYSLLKLHQEGDNGESLVVAKMTRTQPMAFGVLPGLSHSGKNIGIIRSITMANAATHPTAIWVLRCLQVKSRDSYNKLVKELDNITKETQKNEHKEFVKTLVFTREYITNRYSMIIFRLIDDRGNHLIDYDLYLTAGPQYSEQALPAGFFVDRQRNLNNRGKLTYFLDYDIMEGGINTPKMQGNLGFRVKAYPESSEQALAYYRLLDFHSSLADIHKILHPNETVMVEIMLQRRVDKTVFRINNNLTPAKISGKPTGKKID | not soluble
MGHHHHHHSHKPDEDDANRLGEKVILREQVKELFNEKYGEALGLNRPVLVPYKLIRDSPDAVEVTGLPDDIPFRNPNTYDIHRLEKILKAREHVRMVIINQLQPFAEICNDAKVPAKDSSIPKRKRKRVSEGNSVSSSSSSSSSSSSNPDSVASANQISLVQWPMYMVDYAGLNVQLPGPLNY | not soluble
MMKQHLDALKDSKYCPLWHDQDIRPETLPALSADTSCELLIVGGGFTGLWGALQAKERQPDADIILIEKTTISDGASGRNGGFLSSSLAHGETNTDHQFPGEADKLHQLGQQNLKEFIETLEHYNIDARYEKVGETSVATDQASVDALRATYESEKAQGEDVVWFNQEEMQAQVNSPTYLAGLWYRGGQDGVVDPARLCWGLKRVILELGVRIYEETPLTSLKKLGQDKMEVTCSDVKIISDKVLMATNAYRNPIGQARRSIIPVWDYQIATQPLSQEQLDSIGWHKSRHALSNHANMFHYYRFTKDNRITWGGGGAVRYYFNNGIDQSYADIPERFAQLSEEFFETFPQLKGIKFTHRWSGIIATSTRFCVVPGVAYDGRVAWAIGYTGLGVGASRFGARIGIELLGYKPSEILDMQFVKKKPIPWAPEPLRWIGVYLTHKALEKADANGGKRGLWLKLLDMLNLGFTCLEHHHHHH | not soluble
TDLVAVWDVALSDGVHKIEFEHGTTSGKRVVYVDGKEEIRKEWMFKLVGKETFYVGAAKTKATINIDAISGFAYEYTLEINGKSLKKYMEDRSKTTNTWVLHMDGENFRIVLEKDAMDVWCNGKKLETAGEFVDDGTETHFSIGNHDCYIKAVSSGKRKEGIIHTLIVD | not soluble
MQLNSSSFHPHHFTCDTTRYSEEQVACICEALSNDARKLSQFVWTVLERDEMRNNQYILKAQAFLAFHSNNFKELYRIIESHHFASEHHLPLQEWWLNAHYHEAEKIRGRQLGAVGKYRIRRKYPLPRTIWDGEETSYCFRDKSRVLLRDWYCRNSYPSPREKRELAEKTHLTVTQVSNWFKNRRQRDRAGVPEPKDCLKDISEEEDLKLIRKTASKLSNSFHNPSDLSSYSAAAAAATFPGFYMNYNDMMIGAGTSYQSL | not soluble
MDAENRVIINVGGIRHETYKATLKKIPATRLSRLTEGMLNYDPVLNEYFFDRHPGVFAQIINYYRSGKLHYPTDVCGPLFEEELEFWGLDSNQVEPCCWMTYTAHRDTQETLAVL | soluble
MSLSKSDDGDSEESFSISVQSGFEAMSQELCIVMCLKDLTSIVDIKTSSRPAMIGSLTDGSTETFWESGDEDKNKTKNITINCVKGINARYVSVHVDNSRDLGNKVTSMTFLTGKAVEELCRIKQVDLDSRHIGWVTSELPGGDNQIIKIELKGPENTLRVRQVKVLGWKDGESTKIAGQISASVAQQRSCEAETLRVFRLITSQVFGKLISGDAEPTPEQEEKALLSSPEGEEKATSDADLKEHMVGIIFSRSKLTNLQKQVCAHIVQAIRMEATRVREEWEHAISSKENANSQPSDEDASSDAYCFELLSMVLALSGSNVGRQYLAQQLTLLQDLFSLLHTASPRVQRQVTSLLRRVLPEVTPNRLASIIGVKSLPPADISDIIHSTEKGDWNKLGILDMFLGCIAKALTVQLKAKGTTITGTAGTTVGKGVTTVTLPMIFNSSYLRRGESHWWMKGSTPTQISEIIIRLIKDMAAGHLSEAWSRVTKNAIAETIIALTKMEEEFRSPVRCIATTRLWLALASLCVLDQDHVDRLSSGRWMGKDGQQKQMPMCDNHDDGETAAIILCNICGNLCTDCDRFLHLHRRTKTHQRQVFKEEEEAIKVDLHEGCGRTKLFWLMALADSKTMKAMVEFREHTGKPTTSSSEACRFCGSRSGTELSAVGSVCSDADCQEYAKIACSKTHPCGHPCGGVRNEEHCLPCLHGCDKSATTLKQDADDMCMICFTEALSAAPAIQLDCSHVFHLQCCRRVLENRWLGPRITFGFISCPICKNKINHIVLKDLLDPIKELYEDVRRKALMRLEYEGLHKSEAITTEGHHHHHH | not soluble
MGSDKIHHHHHHMETAAELKTRLIAQAKAEGFVSVRLCRPWDVPEVPERLRAFLEAGYHGQMKWMAERINWRENPAALWPEARSVIMLAESYTPDEDPMAVVGLPDRAAISVYARGKDYHDLVKKRLKRLARWLIEEAPDEAQVKVFVDTAPVPEKALGQASGLGWQGKHTNLVSRDWGNWAFLGSIFTTLDLPVDAPEPDRCGSCRACLTACPTDAFPAPYQLDARRCISYLTIEHKGPIEEELRTKLGNRIYGCDDCLAACPWNKFAVEASDMRYAAREGTIAPPLAELSQLDDAAFRARFSGSPIKRIGRDRFVRNVLYAIGNSGDAGLHVFAQALCDDPDPTVAEAARWAAARLP | not soluble
DNMFCNKEYCNRLKDENNCISNLQVEDQGNCDTSWIFASKYHLETIRCMKGYEPTKISALYVANCYKGEHKDRCDEGSSPMEFLQIIEDYGFLPAESNYPYNYVKVGEQCPKVEDHWMNLWDNGKILHNKNEPNSLDGKGYTAYESERFHDNMDAFVKIIKTEVMNKGSVIAYIKAENVMGYEFSGKKVKNLCGDDTADHAVNIVGYGNYVNSEGEKKSYWIVRNSWGPYWGDEGYFKVDMYGPTHCHFNFIHSVVIFNVDLPMN | soluble
MVVLNPNNWHWVDKNTLPWSKDYLNGKLTSLSTVSSDGKSKIELTQVSSITGDSNVSQRKGKPICYFDLQLSMNVKVTNLDTNKDDEDDDGILADGKLEIPEFMHDESDIPILSQGFDAFDGLVRSEFVPKVVETLLKYQDDLIKEHSKDIQV | soluble
MSLDLPAHARVVIVGGGVMGVGLAYHLAHEGWGGDTVLLEKAELTSGSTWHAAGQITHSTSSFGLGKCVDYNIGLYSGKLEAETGQAVTWHGCGSFRLAYTEDEMDWLRHTLSVGRSLGFNIELVGPKRIAELHPFYNLDGVLGALHTPDDGHVDPTNVTMAMAAGARAKGVRIFRHTCATNITQGANGEWVVETGKGTITCEHVVNAGGTYARQMGEWSGLQLPMTSMTHHYFVTEPVPEFQSLDRELPVIRDDRKVSGYIRMEQKRGLIGIYEKANPNAVWIDECPWDYENWLFDADYDRVMPWLEESLNRMPIFADLGIQREVHGAISHPPDGNPLIGPAPGVRNYWCCCGTQIGIGWGPGLSRELARWIVHGAADISMRDFDPRRFGAYATKDWQVIKAREDYCLRHEIPFPHFNRLAGRPVKPSPLYDRLKEKGAVYEEVYGHERPRWFARGIEQRDHYGFGRTPVHDMVATECAAVRSAAGIMDISAFTRVEVSGPDAGALLDRLTANRLPQKPGGIALTHMLNRRGRIELETTVVKLDEDRFYLVCAAFFEQRLLDHLAAHRGTADITVRNLSTDWAALALNGPHARDILAACTEADLSNARFKWLTAQQITVAGHSLWALRMSYAGELGWELHIPRDHALAVYDALWAAGQRYGLTDYGSFAMNALRMEKAFKGAGELTNEVTLAEADVLRFARTDKDYLGRDKTLNAGNLPWVCAYLEIAPDGRFDGNGGEAVLLDGKVVGSTASVAYGHTVGKILAFAYVKPQVNVPGTEVEVIIAGNPRKGRILGAPAYDPDSTKPRADAEGHHHHHH | soluble
MKPVPTYVQDKDESTLMFSVCSLVRDQAKYDRLLESFERFGFTPDKAEFLAADNREGNQFHGFSWHKQMLPRCKGRYVIFCHEDVELVDRGYDDLVAAIEALEEADPKWLVAGVAGSPWRPLNHSVTAQALHISDVFGNDRRRGNVPCRVESLDECFLLMRRLKPVLNSYDMQGFHYYGADLCLQAEFLGGRAYAIDFHLHHYGRAIADENFHRLRQEMAQKYRRWFPGRILHCVTGRVALGGGWYEAR | soluble
